Results reported in patent publication US20150232560A1 (Hoffmann-La Roche, published 2015).
Where “and” joins values, the source holds several entries; their conditions need not be identical. Equal values may be shown once. Values belong to the binder of their own block, whether it stands above or below them.

What was measured:
[1] = target: T1, IGF-1R(1340-1366)[1346-pTyr]amid (phosphotyrosine at 1346; C-terminal amide); experiment: SPR (BIAcore 3000), ss-FABs hybridized on biotinylated T40-Bi linker on SA chip, peptide in solution; T40-Bi linker (linker 10)
T1 construct: Used as the analyte free in solution; also called pIGF-1R peptide (free in solution); phosphorylated IGF-1R peptide
T1 peptide: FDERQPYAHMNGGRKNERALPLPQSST

IGF-1R(1340-1366)amid [2] = target: T2, IGF-1R(1340-1366)amid (C-terminal amide); experiment: SPR (BIAcore 3000, SA sensor, 25 C): ss-FABs hybridized on the surface-captured biotinylated T40-Bi ss-DNA linker; peptide as analyte in solution
T2 construct: Used as the analyte free in solution; also called IGF-1R peptide (free in solution); non-phosphorylated IGF-1R peptide
T2 peptide: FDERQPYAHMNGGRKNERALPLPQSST
Text: (§1) FIG. 17 Schematic drawing of the BIAcore assay, presenting the complex s on the sensor surface. On Flow Cell 1 (=FC1) (not shown) amino-PEO-biotin was captured. On FC2, FC3 and FC4 bivalent binding agents with increasing linker length were immobilized. Analyte 1: IGF-1R-peptide containing the M-1.4.168 ss-FAB epitope (thin line)-the M-8.1.2 ss-FAB phospho-epitope is not present, because this peptide is not phosphorylated; analyte 2: pIGF-1R peptide containing the M-8.1.2 ss-FAB phospho-epitope (P) and the M-1.4.168 ss-FAB epitope (thin line). Analyte 3: pINR peptide, containing the cross reacting M-8.1.2 ss-FAB phospho-epitope, but not the epitope for M-1.4.168.
(§2) The dissociation was monitored at 50 μl/min for 5.3 min. The system was regenerated after each concentration step with a 12 sec pulse of 250 mM NaOH and was reloaded with ss-FAB ligand.

[3] = target: T1, IGF-1R(1340-1366)[1346-pTyr]amid; experiment: as above
Text: as §1, §2

[4] = target: T3, INR(1355-1382)[1361-pTyr]amid (human, phosphotyrosine at 1361; C-terminal amide); experiment: SPR (BIAcore 3000, SA sensor, 25 C): single ss-FAB hybridized on the surface-captured biotinylated T40-Bi ss-DNA linker; peptide as analyte in solution
T3 construct: Used as the analyte free in solution; also called pINR peptide; phosphorylated insulin receptor peptide (free in solution)
T3 peptide: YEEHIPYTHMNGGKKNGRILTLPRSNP

[5] = target: T1, IGF-1R(1340-1366)[1346-pTyr]amid; experiment: SPR (BIAcore 3000), ss-FABs hybridized on biotinylated T0 linker on SA chip, peptide in solution; T0 linker (no spacer; linker 16 as printed)
IGF-1R(1340-1366)amid [6] = target: T2, IGF-1R(1340-1366)amid; experiment: SPR (BIAcore 3000, SA sensor, 25 C): ss-FABs hybridized on the surface-captured biotinylated T0-Bi ss-DNA linker; peptide as analyte in solution
[7] = target: T1, IGF-1R(1340-1366)[1346-pTyr]amid; experiment: as above

Kd [1]: 0.01 nM | Kd (IGF-1R(1340-1366)amid [2]): 0.973 nM and 1 nM | t1/2 diss (IGF-1R(1340-1366)amid [2]): 4.3 min | Kd [3]: 0.0125 nM
B1: T40 dual binding agent: ss-FAB 8.1.2 and ss-FAB 1.4.168 on the biotinylated T40-Bi 77-mer ss-DNA-Linker (linker 10) (bispecific antibody, V domains shown)
VH 1: QCDVKLVESGGGLVKPGGSLKLSCAASGFTFSDYPMSWVRQTPEKRLEWVATITTGGTYTYYPDSIKGRFTISRDNAKNTLYLQMGSLQSEDAAMYYCTRVKTDLWWGLAYWGQGTLVTVSA
VL 1: QLVLTQSSSASFSLGASAKLTCTLSSQHSTYTIEWYQQQPLKPPKYVMELKKDGSHTTGDGIPDRFSGSSSGADRYLSISNIQPEDESIYICGVGDTIKEQFVYVFGGGTKVTVLG
VH 2: EVQLQQSGPALVKPGASVKMSCKASGFTFTSYVIHWVKQKPGQGLEWIGYLNPYNDNTKYNEKFKGKATLTSDRSSSTVYMEFSSLTSEDSAVYFCARRGIYAYDHYFDYWGQGTSLTVSS
VL 2: QIVLTQSPAIMSASPGEKVTLTCSASSSVNYMYWYQQKPGSSPRLLIYDTSNLASGVPVRFSGSGSVTSYSLTISRMEAEDAATYYCQQWSTYPLTFGAGTKLELK
modifications: ss-DNA on a hinge cysteine
notes: Assembled on the SA chip on the biotinylated linker T20-(Biotin-dT)-T20; also called T40-bi complex

binding result [4]: no binding
B2: ss-FAB' 1.4.168 (Fab, V domains shown)
VH: DVKLVESGGGLVKPGGSLKLSCAASGFTFSDYPMSWVRQTPEKRLEWVATITTGGTYTYYPDSIKGRFTISRDNAKNTLYLQMGSLQSEDAAMYYCTRVKTDLWWGLAYWGQGTLVTVSA
VL: B1 VL 1
modifications: 17mer ss-DNA comprising SEQ ID NO: 05 with fluorescein, coupled via maleimide to a cysteine of the FAB' hinge region
notes: FAB' made from the murine monoclonal antibody M-1.4.168 by pepsin cleavage and cysteamine reduction; the constant parts are not; also called ss-FAB 1.004.168; fluorescein-ss-FAB' 1.4.168

Kd [5]: 0.03 nM | Kd (IGF-1R(1340-1366)amid [6]): 1.2 nM and 1 nM | t1/2 diss (IGF-1R(1340-1366)amid [6]): 5 min | Kd [7]: 0.0344 nM
B3: T0 dual binding agent: ss-FAB 8.1.2 and ss-FAB 1.4.168 on the biotinylated T0-Bi 37-mer ss-DNA-Linker (linker 17) (bispecific antibody, V domains shown)
VH 1: B1 VH 1
VL 1: B1 VL 1
VH 2: B1 VH 2
VL 2: B1 VL 2
modifications: ss-DNA on a hinge cysteine
notes: The protein parts are the same in both cases
